By EC50 is commonly meant the midpoint of the concentration-response curve. A word on the Kd: it is the constant that tells how readily two partners part at equilibrium. Higher therefore signals weaker binding. The kon is the second-order rate constant of association. A lower kon goes with slow association. As usually defined, the koff is the first-order rate constant of dissociation.

The results in this text go back to patent publication US20220324970A1 (Janssen / Centocor, published 2022).

For assay [1], the target named is T1, human pIgR, full-length, on cells (human, UniProt P01833 19-764). Description: cell-based or functional assay.
The target of assay [2] is T1, human pIgR, full-length, on cells. Briefly: cell-based or functional assay. The source holds these as a separate data set.
Assay [3] has the same target. Briefly: flow cytometry on MDCK-hpIgR cells. In general terms: A flow cytometer gives signals particle by particle.
Description: (§1) Flow Cytometry was performed as follows. To test whether VHH-mono-Fc molecules recognize cell-surface hpIgR, Madin-Darby canine kidney (MDCK) cells engineered to express full-length hpIgR were used. Cells were cultured in Dulbecco's modified Eagle's medium containing 10% fetal calf serum at 37° C. with 5% CO₂. Cells were split into equal fractions (≈70,000 cells) and incubated with increasing concentrations of VHH-mono-Fc molecules for 30 min at 4 C. […] Cells were washed twice with cold staining buffer, resuspended in running buffer and analyzed with an iQue Screener (IntelliCyt Corporation). Binding was assessed by RL1 (A647) Geomeans from the live cell population and EC50 was calculated by fitting log VHH concentration versus MFI in Prism (Graphpad).
Assay [4] addresses T2, human pIgR extracellular domain (ECD) (human, UniProt P01833 19-638).
T2 construct: also called hpIgR ECD
Briefly: BLI; summary table, repeats Table 1.

For assay [5], the target named is T2, human pIgR extracellular domain (ECD). Description: BLI; summary table, repeats Table 1. The source holds these as a separate data set. A general note: In BLI a coated tip is dipped into the sample, and binding shifts an interference pattern.
Assay [6] has the same target. Description: BLI (Octet), VHH-mono-Fc and hpIgR ectodomain.
Assay [7] shares this target. Description: ECL (MSD), hpIgR-ECD coated, anti-Fc detection.
Description: To check whether VHH recognizes a buried epitope on pIgR, EC₅₀ values were measured for VHH-mono-Fc molecules binding to hpIgR-ECD protein by electrochemiluminescence using two different detection antibodies, an anti-Fc antibody and an anti-VHH antibody. pIgR ECD (10 μg/ml in PBS) was coated on high-bind MSD plates for 2 hours at RT with 1000 rpm, incubated with blocking buffer for 1 hour at RT, incubated with VHH-mono-Fc molecules (increasing concentrations in PBS) for 2 hours at RT with 1000 rpm, washed 3× with PBT, incubated with ruthenylated secondary antibody (2 μg/ml in PBS) for 1 hour at RT with 1000 rpm, washed 3× with PBT and read plates in 40 ul reading buffer using the MSD imager. EC50 was calculated by fitting log VHH concentration versus log ECLU in Prism (Graphpad). The increase in EC₅₀ (>50-fold) due to anti-VHH detection was used as a measure to determine whether VHH recognized buried epitope on pIgR.
Assay [8] shares this target. Description: ECL (MSD), hpIgR-ECD coated, anti-VHH detection.
The target is the same in assay [9]. Briefly: ECL (MSD), anti-VHH detection against anti-Fc detection.
For assay [10] the target is unchanged. Briefly: BLI (Octet RED384), 1:1 fit, 25 C, PBS.
Assay [11] concerns the target T1, human pIgR, full-length, on cells. Briefly: flow cytometry on MDCK-hpIgR cells; summary table, repeats Table 1.
Assay [12] shares this target. The assay is described as above. The source holds these as a separate data set.
Description: as §1
Assay [13] concerns the target T2, human pIgR extracellular domain (ECD). Description: BLI (Octet RED384), 1:1 fit, 25 C, PBS; column kdis.
The target in assay [14] is T3, human pIgR extracellular domain 4-domain 5 (D4-D5) (human, UniProt P01833 350-565).
T3 construct: HIS-tagged construct made in HEK293 cells; also called hpIgR domains 4-5
T3 chain: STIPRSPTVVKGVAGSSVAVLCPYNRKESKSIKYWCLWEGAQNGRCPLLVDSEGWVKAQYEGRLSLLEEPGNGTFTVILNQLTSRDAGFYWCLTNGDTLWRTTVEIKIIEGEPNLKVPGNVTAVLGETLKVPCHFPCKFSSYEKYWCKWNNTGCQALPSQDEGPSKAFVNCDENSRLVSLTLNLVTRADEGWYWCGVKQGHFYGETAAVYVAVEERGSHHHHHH
Briefly: BLI (Octet RED384), 1:1 fit, 25 C, PBS; antigen printed 'hD4 D5'.
Description: (§2) Bio-layer Interferometry was performed as follows. […] Data were collected with Octet Data Acquisition version 7.1.0.87 (ForteBio) and analyzed using Octet Data Analysis version 7.1 (ForteBio). To measure binding kinetics between VHH-mono-Fc molecules and HIS-tagged pIgR proteins, VHH-mono-Fc was immobilized on amine-reactive generation-2 (ARG2) biosensors according to manufacturer's instructions and increasing concentrations of pIgR proteins were exposed to sensor-immobilized VHH. In some cases, HIS-tagged pIgR proteins were immobilized on anti-HIS biosensors and exposed to increasing concentrations of VHH-mono-Fc molecules. Association and dissociation rates were measured by the shift in wavelength (nm). […] All reactions were performed at 25° C. in PBS.

Assay [15] addresses T4, hpIgR_D3.
T4 construct: HIS-tagged construct from HEK293 cells; also called human pIgR extracellular domain 3 (D3); hD3
T4 HIS-tagged domain construct: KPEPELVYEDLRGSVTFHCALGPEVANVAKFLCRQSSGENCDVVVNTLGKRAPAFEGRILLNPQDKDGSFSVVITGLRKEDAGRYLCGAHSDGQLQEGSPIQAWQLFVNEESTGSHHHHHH
Description: ECL (MSD) heat map, HIS-tagged construct captured via anti-HIS, anti-human-Fc detection.
Description: (§3) A meso-scale discovery (MSD) platform was used for conducting epitope mapping and epitope burial studies. To test the binding of VHH-mono-Fc molecules to purified pIgR protein constructs, Streptavidin MSD plates were coated with a biotinylated anti-HIS antibody (2 μg/ml in PBS) for 1 hour at RT with 1000 rpm, washed 3× with PBT (PBS+0.1% Tween-20), incubated with blocking buffer for 1 hour at RT, incubated with His-tagged pIgR proteins (10 μg/ml in PBS) for 2 hours at RT with 1000 rpm, washed 3× with PBT, incubated with VHH-mono-Fc molecules (100 μg/ml in PBS) for 2 hours at RT with 1000 rpm, washed 3× with PBT, incubated with ruthenylated-anti-human-Fc antibody (2 μg/ml in PBS) for 1 hour at RT with 1000 rpm, washed 3× with PBT and read plates in 40 ul reading buffer using the MSD imager. ECLU values were plotted as a heatmap.
(§4) Binding of VHH-mFc molecules were tested to immobilized pIgR constructs by the electrochemiluminescence method.

Assay [16] has as its target T5, human pIgR extracellular domain 1 (D1) (human, UniProt P01833 19-127).
T5 construct: HIS-tagged construct made in HEK293 cells; also called hpIgR domain-1
The assay is described as above.
Description: as §3, §4

For assay [17], the target named is T6, human pIgR extracellular domain 2 (D2) (human, UniProt P01833 128-242).
T6 construct: HIS-tagged construct made in HEK293 cells; also called hpIgR domain 2
Described as above.
Description: as §3, §4

The target of assay [18] is T7, human pIgR extracellular domain 5 (D5) (human, UniProt P01833 460-565).
T7 construct: HIS-tagged construct made in HEK293 cells; also called hpIgR domain 5
Described as above.
Description: as §3, §4

Assay [19] concerns the target T8, hpIgR_D2-D3.
T8 construct: HIS-tagged construct from HEK293 cells; also called human pIgR extracellular domain 2-domain 3 (D2-D3); hD2-D3
T8 HIS-tagged domain construct: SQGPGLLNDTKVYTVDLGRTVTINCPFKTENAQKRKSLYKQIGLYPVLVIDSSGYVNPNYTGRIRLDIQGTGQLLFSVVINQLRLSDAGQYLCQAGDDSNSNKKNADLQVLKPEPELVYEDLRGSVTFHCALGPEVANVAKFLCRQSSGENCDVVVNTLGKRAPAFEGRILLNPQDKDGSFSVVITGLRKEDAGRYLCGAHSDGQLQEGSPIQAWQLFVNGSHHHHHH
The assay is described as above.
Description: (§5) The Electrochemiluminescence assay was performed as follows. A meso-scale discovery (MSD) platform was used for conducting epitope mapping and epitope burial studies. To test the binding of VHH-mono-Fc molecules to purified pIgR protein constructs, Streptavidin MSD plates were coated with a biotinylated anti-HIS antibody (2 μg/ml in PBS) for 1 hour at RT with 1000 rpm, washed 3× with PBT (PBS+0.1% Tween-20), incubated with blocking buffer for 1 hour at RT, incubated with His-tagged pIgR proteins (10 μg/ml in PBS) for 2 hours at RT with 1000 rpm, washed 3× with PBT, incubated with VHH-mono-Fc molecules (100 μg/ml in PBS) for 2 hours at RT with 1000 rpm, washed 3× with PBT, incubated with ruthenylated-anti-human-Fc antibody (2 μg/ml in PBS) for 1 hour at RT with 1000 rpm, washed 3× with PBT and read plates in 40 ul reading buffer using the MSD imager. ECLU values were plotted as a heatmap.

Assay [20] has as its target T9, human pIgR extracellular domain 1-domain 2 (D1-D2) (human, UniProt P01833 19-240).
T9 construct: HIS-tagged construct made in HEK293 cells
Described as above.
Description: as §5

The target in assay [21] is T3, human pIgR extracellular domain …. Briefly: BLI (Octet RED384), 1:1 fit, 25 C, PBS; column kdis; antigen printed 'hD4 D5'.
Description: as §2
Assay [22] shares this target. Briefly: BLI: IgA binding to immobilized HIS-tagged hD4-D5.
The next assay deals with T10, hD3-D4 (human, UniProt P01833).
T10 construct: HIS-tagged two-domain construct; also called human pIgR extracellular domain 3-domain 4 (D3-D4)
Description: BLI response heat map (0-1.0 nm), HIS-tagged pIgR construct immobilized.

The target in assay [23] is T4, hpIgR_D3. The description is as above.
The target in assay [24] is T8, hpIgR_D2-D3. The description is as above.
Assay [25] deals with T11, hpIgR domain-1 with teleost fish CDR1 (hD1 tCDR1) (human, UniProt P01833 19-127, limits assumed).
T11 construct: CDR-swapped hpIgR domain-1 mutant, HIS-tagged, made in HEK293 cells; not shown: HIS tag
The assay is described as above.

For assay [26], the target named is T12, hpIgR domain-1 with teleost fish CDR2 (hD1 tCDR2) (human, UniProt P01833 19-127, limits assumed).
T12 construct: CDR-swapped hpIgR domain-1 mutant, HIS-tagged, made in HEK293 cells; not shown: HIS tag
T12 chain: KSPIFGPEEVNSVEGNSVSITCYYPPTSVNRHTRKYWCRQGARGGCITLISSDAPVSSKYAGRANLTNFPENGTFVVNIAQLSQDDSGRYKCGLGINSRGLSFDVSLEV
Described as above.

The target of assay [27] is T6, human pIgR extracellular domain 2 (D2). Described as above.
The target of assay [28] is T7, human pIgR extracellular domain 5 (D5). The description is as above.
For assay [29], the target named is T3, human pIgR extracellular domain …. Briefly: BLI: IgA binding to immobilized HIS-tagged hD4-D5; sheet says 'IgA binds hD4-D5 weakly'.

T2 sequence (P01833 other isoform, or with tags, fused parts or gaps): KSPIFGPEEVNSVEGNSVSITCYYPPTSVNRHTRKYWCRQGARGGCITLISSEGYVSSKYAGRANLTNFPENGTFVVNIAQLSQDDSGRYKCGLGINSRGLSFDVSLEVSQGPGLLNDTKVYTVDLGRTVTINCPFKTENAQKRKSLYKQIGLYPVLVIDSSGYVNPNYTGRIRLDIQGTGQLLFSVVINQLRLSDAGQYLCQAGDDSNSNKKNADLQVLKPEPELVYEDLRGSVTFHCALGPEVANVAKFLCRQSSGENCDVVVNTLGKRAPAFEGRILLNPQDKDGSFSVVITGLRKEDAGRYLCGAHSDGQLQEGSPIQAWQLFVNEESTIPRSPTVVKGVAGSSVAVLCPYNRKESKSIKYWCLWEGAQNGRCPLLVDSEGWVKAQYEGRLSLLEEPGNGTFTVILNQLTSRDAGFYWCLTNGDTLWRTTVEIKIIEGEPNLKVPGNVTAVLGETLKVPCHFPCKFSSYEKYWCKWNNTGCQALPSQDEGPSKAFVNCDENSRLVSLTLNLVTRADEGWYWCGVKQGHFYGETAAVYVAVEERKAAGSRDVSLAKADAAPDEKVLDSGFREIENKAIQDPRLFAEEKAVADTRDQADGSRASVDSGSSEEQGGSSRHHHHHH
T1 sequence (P01833 19-764): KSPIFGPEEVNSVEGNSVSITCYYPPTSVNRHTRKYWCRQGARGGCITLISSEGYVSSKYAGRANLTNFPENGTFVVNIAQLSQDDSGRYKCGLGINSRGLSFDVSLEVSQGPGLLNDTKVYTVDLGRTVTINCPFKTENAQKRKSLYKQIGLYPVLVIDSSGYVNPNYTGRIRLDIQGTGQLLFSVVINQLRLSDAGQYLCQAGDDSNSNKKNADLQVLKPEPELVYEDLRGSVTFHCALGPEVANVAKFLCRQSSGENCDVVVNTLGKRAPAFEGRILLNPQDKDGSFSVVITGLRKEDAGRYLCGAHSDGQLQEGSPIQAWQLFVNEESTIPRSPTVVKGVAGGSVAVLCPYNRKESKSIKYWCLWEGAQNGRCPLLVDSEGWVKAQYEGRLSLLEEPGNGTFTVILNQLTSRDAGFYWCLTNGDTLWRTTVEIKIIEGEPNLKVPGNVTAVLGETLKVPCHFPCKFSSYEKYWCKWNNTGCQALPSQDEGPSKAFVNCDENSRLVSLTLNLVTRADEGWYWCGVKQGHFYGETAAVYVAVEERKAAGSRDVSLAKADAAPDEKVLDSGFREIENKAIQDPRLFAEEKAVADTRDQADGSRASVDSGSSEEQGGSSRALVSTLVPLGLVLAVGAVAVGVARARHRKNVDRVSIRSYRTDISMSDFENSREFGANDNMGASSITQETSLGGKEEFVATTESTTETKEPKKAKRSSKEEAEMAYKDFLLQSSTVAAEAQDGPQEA
T9 sequence (P01833 other isoform, or with tags, fused parts or gaps limits assumed): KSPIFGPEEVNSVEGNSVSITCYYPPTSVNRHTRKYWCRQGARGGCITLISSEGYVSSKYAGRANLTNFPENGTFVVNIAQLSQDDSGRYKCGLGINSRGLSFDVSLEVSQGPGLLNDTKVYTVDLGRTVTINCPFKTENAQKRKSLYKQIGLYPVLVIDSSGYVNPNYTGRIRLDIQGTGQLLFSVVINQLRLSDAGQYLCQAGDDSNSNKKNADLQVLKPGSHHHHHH
T5 sequence (P01833 other isoform, or with tags, fused parts or gaps limits assumed): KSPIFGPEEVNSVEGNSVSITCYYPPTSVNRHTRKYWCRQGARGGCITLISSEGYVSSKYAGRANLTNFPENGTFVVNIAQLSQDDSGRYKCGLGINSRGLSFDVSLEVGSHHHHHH
T10 sequence (P01833 240-459 limits assumed): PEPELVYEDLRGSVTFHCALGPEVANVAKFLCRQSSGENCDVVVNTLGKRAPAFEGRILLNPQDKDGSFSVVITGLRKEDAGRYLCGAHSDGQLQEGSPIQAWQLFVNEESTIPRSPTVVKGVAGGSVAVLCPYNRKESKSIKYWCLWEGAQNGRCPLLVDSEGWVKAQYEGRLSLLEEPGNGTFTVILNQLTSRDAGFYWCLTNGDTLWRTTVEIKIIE

B1: VHH5-linker-mono-Fc protein (Fc fusion)
chain: QVQLVESGGGLVQAGGSLRLSCAASGRTFSSYAMGWFRQAPGKEREFVAAITWNGGTTYYADSVKGRFTISRDNAKNTVYLQMNSLKPEDTAVYYCAADPFNQGYWGQGTQVTVSSEPKTPKPQPQPQLQPQPNPTTESKSPKSPAPELLGGPSVFLFPPKPKDTLMISRTPEVTCVVVDVSHEDPEVKFNWYVDGVEVHNAKTKPREEQYNSTYRVVSVLTVLHQDWLNGKEYKCKVSNKALPAPIEKTISKAKGQPREPQVYTKPPSREEMTKNQVSLSCLVKGFYPSDIAVEWESNGQPENNYKTTVPVLDSDGSFRLASYLTVDKSRWQQGNVFSCSVMHEALHNHYTQKSLSLSPGK
notes: made in CHO cells; also called VHH5-mono-Fc; hpIgR_175
For B1, the “Transcytosis (Fold Incr.)” value in assay [1] is 6.9 fold. In addition, the “For. Trans. (Fold Incr.)” value in assay [2] was determined as 8.9 fold. Moreover, the “Rev. Trans (Fold Incr.)” value in [2] turned out to be 2.1 fold. Moreover, the EC50 in [3] was found to be 4.3 nM; in assay [7], 0.3 nM; in [8] it was 178 nM; in assay [11] it was 4.3 nM; in assay [12], 4.3 nM. Moreover, the Kd in assay [4] stood at 11 nM; in assay [5] it was 11 nM; in [6], 11 nM; in assay [10], 10 nM; in assay [14], 11.6 nM. Besides, the “Fold change in EC50” value in assay [9] was found to be 592 fold. Further, the kon in [10] was 145000 M⁻¹ s⁻¹; in assay [14], 111000 M⁻¹ s⁻¹. In addition, the koff in assay [13] worked out at 0.00145 s⁻¹; in assay [21] it was 0.00128 s⁻¹. Moreover, the binding result (with hpIgR_D3 [15]; in [16]; in [17]; in [18]; with hpIgR_D2-D3 [19]; in [20]) was “no binding (tested: 100 ug/ml (single concentration))” each time.

B2: recombinant dimeric IgA2 construct (antibody)
heavy: QVQLVQSGAEVKKPGSSVKVSCKSSGGTSNNYAISWVRQAPGQGLDWMGGISPIFGSTAYAQKFQGRVTISADIFSNTAYMELNSLTSEDTAVYFCARHGNYYYYSGMDVWGQGTTVTVSSASPTSPKVFPLSLDSTPQDGNVVVACLVQGFFPQEPLSVTWSESGQNVTARNFPPSQDASGDLYTTSSQLTLPATQCPDGKSVTCHVKHYTNPSQDVTVPCPVPPPPPCCHPRLSLHRPALEDLLLGSEANLTCTLTGLRDASGATFTWTPSSGKSAVQGPPERDLCGCYSVSSVLPGCAQPWNHGETFTCTAAHPELKTPLTANITKSGNTFRPEVHLLPPPSEELALNELVTLTCLARGFSPKDVLVRWLQGSQELPREKYLTWASRQEPSQGTTTFAVTSILRVAAEDWKKGDTFSCMVGHEALPLAFTQKTIDRLAGKPTHVNVSVVMAEVDGTCY
light: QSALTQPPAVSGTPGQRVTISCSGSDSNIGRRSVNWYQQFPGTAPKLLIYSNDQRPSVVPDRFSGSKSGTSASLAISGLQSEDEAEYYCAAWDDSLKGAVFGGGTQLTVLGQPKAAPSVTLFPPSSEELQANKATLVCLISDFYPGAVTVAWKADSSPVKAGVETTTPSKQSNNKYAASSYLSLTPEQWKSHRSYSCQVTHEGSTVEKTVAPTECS
chain: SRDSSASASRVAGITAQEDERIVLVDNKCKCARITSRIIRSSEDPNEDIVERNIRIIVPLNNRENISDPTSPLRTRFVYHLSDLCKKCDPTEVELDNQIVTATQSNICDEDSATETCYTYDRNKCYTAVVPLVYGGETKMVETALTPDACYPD
notes: No sentence says outright that they are the dIgA2 of the assays; also called dIgA2; dIgA
B2 returned a koff in [22] of 0.0801 s⁻¹. In assay [22], this molecule returned a kon of 78400 M⁻¹ s⁻¹. In addition, the binding result (in the assay with hD3-D4; in the assay with hpIgR_D3 [23]; with hpIgR_D2-D3 [24]; in [25]; in [26]; in [27]) was “no binding” in each case. In addition, the binding result in [28] was “no binding”. Further, in assay [29], binding was characterised by a dissociation constant (Kd) of 1000 nM.
